# Test results from patent US20220112288A1 (published 2022).
# Target: T1, human CD4 on human PBMCs (human, UniProt P01730 26-458)
# T1 construct: whole, on cells; also called hCD4
# Experiment: FACS, clonal hybridoma supernatant on PBMCs
% CD4 Stain,gMFI of CD4+,Binder
33.4%,228000 gMFI,"75110_07J02A (antibody, V domains shown) VH: EVQLVESGGGLVQPGGSLRLSCAASGFTFSSYWMSWVRQAPGKGLEWVANIKEDGSEKYYVDSVKGRFTISRDNAKNSLYLQMNSLRAEDTAVYYCARDGSYSGYGMDVWGQGTTVTVSS VL: AIQMTQSPSSLSASVGDRVTITCRASQGIRNDLGWYQQKPGKAPKLLIYAASSLQSGVPSRFSGRGSGTDFALTISSLQPEDFATYYCLLDYNYPYTFGQGTRLEIK"
30.3%,140000 gMFI,"75110_08A13A (antibody, V domains shown) VH: EVQLVESGGGLVQPGGSLRLSCAASGFIFSSYWMSWVRQAPGKGLEWVANIKQDGSEKYYMDSVKGRFTISRDNAKNSLYLQMNSLRAEDTAVYYCARDNSYYYYGMDVWGQGTTVTVSS VL: AIQMTQSPSSLSASVGDRVTITCRASQGIRDDLGWYQQKPGKAPKLLIFAASSLQSGVPSSFSGSGSGTDFTLTISSLQPEDFATYYCLHHYNYPYTFGQGTKLEIK"
29%,119000 gMFI,"75110_10K21A (antibody, V domains shown) VH: EVQLVESGGGLVQPGGSLRLSCAASGFTFSSYWMTWVRQAPGKGLEWVANIKQDGSEKYYVDSVKGRFTISRDNAKNSLYLQMNSLRAEDTAVYYCVRDRYDALDIWGQGTMVTVSS VL: AIQMTQSPSSLSASVGDRVTITCRASQGIRNDLNWYQQKPGKAPKLLIYAASSLQSGVPSRFSGSGSGTDFTLTISSLQAEDFATYYCLKDYNYPYTFGQGTKLEIK"
28.8%,28400 gMFI,"75110_07J24A (antibody, V domains shown) VH: QAQLQESGPGLVKPSETLSLTCTVSGGSISSYYYNWIRQPAGKGLEWIGRIYTSGRTDYNPSLKSRVTMSADTSKNQFSLKLSSVTAADTAVYYCARDEGPTDAFDIWGQGTMVTVSS VL: DIVMTQTPLSLPVTPGEPASISCRSSQSLLDSDDGNTYLDWYLQKPGQSPHLLIYTLSYRASGVPDRFSGSGSGSDFTLKISRVEAEDVGVYYCMQRIEFPFTFGPGTKVDIK"
33.8%,104000 gMFI,"75110_07N04A (antibody, V domains shown) VH: QVQLQESGPGLVKPSETLSLTCSVSGVSSTSFYWSWIRQPAGKGLDWIGRIYTSGSTNYNPSLKSRVTMSVDTSKNQFSLKLSSVTAADTAVYYCARDPGYSDAFAIWGQGTMVTVSS VL: not shown"
33.2%,307000 gMFI,"75110_08F20A (antibody, V domains shown) VH: QVQLQESGPGLVKPSETLSLTCSVSGGSISTYYWSWIRQPAGKGLEWIGRICTTENTNYNPSLKSRVTMSIDSSKNQFSLKLSSVTAADTAVYYCARDLERLNYYGMDVWGQGATVTVSS VL: DIQMTQSPSSLSASVGDRVTITCQASQDISKYLNWYQQKPGIAPKLLIYDASNLETGVPSRFSGSGSGTDFTFTISSLQPEDFATYYCQQYDSLPITFGQGTRLEIK"
32.2%,324000 gMFI,"75110_08G08A (antibody, V domains shown) VH: QVQLQESGPGLVKPSETLSLTCSVSGGSISTYYWSWIRQPAGKGLEWIGRICTTENTNYNPSLKSRVTMSIDSSKNQFSLKLSSVTAADTAVYYCARDLERLNYYGMDVWGQGATVTVSS VL: DIQMTQSPSSLSASVGDRVTITCQASQDISNYLNWYQQKPGIAPKLLIYDASNLETGVPSRFSGSGSGTDFTFTISSLQPEDIATYYCQQYDSLPITFGQGTRLEIK"

# Target: T2, human CD4 (human, UniProt P01730 26-458)
# T2 construct: whole, on cells; also called hCD4
# Experiment: FACS, clonal hybridoma supernatant on human PBMCs
% CD4 Stain,gMFI of CD4+,Binder
35.3%,208000 gMFI,"75110_01L08A (antibody, V domains shown, Tested as clonal hybridoma supernatant (AlivaMab Mouse Kappa; anti-mouse Fc detection)) VH: QVQLQESGPGLVKPSETLSLTCTVSGGSISHYYWSWIRQPPGKGLEWIGYIHYSGTTNYNPSLKSRVTISVDTSKNQLSLKLRSVTAADTAVYYCARDQGFSSGGMDVWGQGTTVTVSS VL: not shown"
40.5%,162000 gMFI,"75110_02I18A (antibody, V domains shown, Tested as clonal hybridoma supernatant (AlivaMab Mouse Kappa; anti-mouse Fc detection); also called 75110_02118A; Sib1.14) VH: EVQVVESGGGLVQPGGSLRLSCAASGFTFSSYDMHWVRQATGKGLEWVSTIGTAGDTYYPGSVKGRFTISRENAKNSLYLQMNSLRAGDTAVYYCARGGYYYYGMDVWGQGTTVTVSS VL: EIVLTQSPGTLSLSPGERATLSCRASQSVSSSYLAWYQQKPGQSPRLLIHGASSRATGIPDRVSGSGSGTDFTLTISRLEPEDFAVYYCQQYGSSPFTFGPGTKVDIK"
39%,253000 gMFI,"75110_02N15A (antibody, V domains shown, Tested as clonal hybridoma supernatant (AlivaMab Mouse Kappa; anti-mouse Fc detection); also called Sib2.3) VH: EVQLVESGGGLVQPGGSLRLSCAASGFTFSSYWMSWVRQAPGKGLEWVANINEDGNEKYYVDSVKGRFTISRDNAKNSLFLQMNSLRAEDTAVYFCAREGGQWLALDHWGQGALVTVSS VL: DIQMTQSPSSVSASVGDRVTITCRASQGISSWLAWYQQKPGKAPKFLISGASSLQSGVPSRFSGSGSGTDFTLTISSLQPEDFATYYCQQANSFPWTFGQGTKVEFK"
35.6%,207000 gMFI,"75110_03D16A (antibody, V domains shown, Tested as clonal hybridoma supernatant (AlivaMab Mouse Kappa; anti-mouse Fc detection); also called Sib2.5) VH: EVQLVESGGGLVQPGGSLRLSCAASGFTFSSYWMSWVRQAPGKGLEWVANINQDGGEKYYVDSVKGRFTISRDNAKNSLYLQMNSLRAEDTAVYYCVREGGQWLALDYWGQGTLVTVSS VL: DIQMTQSPSSVSASVGDRVTITCRASQGISSWLTWYQQKPGKAPKFLIYAASSLQSGVPSRFSGSGFGTDFTLTISSLQPEDFATYYCQQANSFPWTFGQGTKVEIK"
36.1%,169000 gMFI,"75110_03C01A (antibody, V domains shown, Tested as clonal hybridoma supernatant (AlivaMab Mouse Kappa; anti-mouse Fc detection); also called Sib6.2) VH: QVQLQQWGAGLLKPSETLSLTCAVYGGSFSGYYWSWIRQSPGKGLEWIGEINQSGSTNYNPSLKSRVTISVDTSKDQFSLKLSSVTAADTAVYYCARVINWFDSWGQGSLVTVSS VL: DIQMTQSPSSVSASVGDRVTITCRASQGISSWLAWYQQKPGNAPKLLIYDASSFQSGVPSRFSGSGSGTDFTLTISSLQTEDFATYYCQQANSFPYTFGQGTKLEIK"

# Second part, the binder before the results:
Binder,% CD4 Stain,gMFI of CD4+
"75110_01N04A (antibody, V domains shown, Tested as clonal hybridoma supernatant (AlivaMab Mouse Kappa; anti-mouse Fc detection); also called Sib1.13) VH: EVQLVESGGGLVQPGGSLRLSCAASGFTFSNYDMHWVRQATGKGLEWVSTIGTAGDTYYPGSVKGRFTISRENAKNSLYLQMNSLRAGDTAVYYCARGGDFYYGLDVWGQGTTVTVSS VL: not shown",37.2%,205000 gMFI
"75110_01G11A (antibody, V domains shown, Tested as clonal hybridoma supernatant (AlivaMab Mouse Kappa; anti-mouse Fc detection); also called Sib1.6) VH: EVQLVESGGGLVQPGGSLRLSCAASGFTFSSYDMHWVRQATGKGLEWVSTIGTAGDTYYPGSVKGRFTISRENARNSLFLQMNSLRAGDTAVYYCARGGDYYYGMDVWGQGTTVTVSS VL: EIVLTQSPGTLSLFPGERATLSCRASQNTYSSYLAWYQQKPGQAPRLLIYGASNRATGIPDRFSGSGSGTDFTLTISRLEPEDFAVYYCQQHGTSPFTFGPGTKVDIK",39%,164000 gMFI
"75110_01J17A (antibody, V domains shown, Tested as clonal hybridoma supernatant (AlivaMab Mouse Kappa; anti-mouse Fc detection); also called Sib1.12) VH: EVQLVESGGGLVQPGGSLRLSCAASGFTFSSYDMHWVRQGTGKGLEWVSTIGTADDTYYPGSVKGRFTISRENAENSLYLQMNSLRAGDTAVYYCARGGDYYYGMDVWGQGTTVTVSS VL: EIVLAQSPGTLSLSPGERATLSCRASQSVYISYLAWYQQKPGQAPRLLIYGASSRATGIPDRFSGSGSGTDFTLTITRLEPEDFAVYYCQQFGSSPFTFGPGTKVDFK",35.2%,167000 gMFI
"75110_01E08A (antibody, V domains shown, Tested as clonal hybridoma supernatant (AlivaMab Mouse Kappa; anti-mouse Fc detection); also called Sib1.11) VH: EVQLVESGGGLVQPGGSLRLSCAASGFTFNNYDMHWVRQATGKGLEWVSTIGTAGDTYYPASVKGRFTIYRENAKNSLYLQMNSLRAGDTAVYYCARGGDYYYGMDVWGQGTTVTVSS VL: not shown",36.5%,113000 gMFI
"75110_01K10A (antibody, V domains shown, Tested as clonal hybridoma supernatant (AlivaMab Mouse Kappa; anti-mouse Fc detection); also called Sib1.3) VH: EVQLVESGGALVQPGGSLRLSCAASGFTFRNYDMHWVRQATGKGLEWVSTIGTAGDTYYPGSVKGRFTISRENAKNSLYLQMNSLRAGDTAVYYCARGGDYYYGMDVWGQGTTVTVSS VL: EIVLTQSPDTLSLSPGERATLSCRASQSLSSVYLAWYQQKPGQAPRLLIYGASSRATGIPDRFSGTGSGTDFTLTISRLEPEDFAVYYCQQYGSSPFTFGPGTKVDIK",38%,191000 gMFI
"75110_01A06A (antibody, V domains shown, Tested as clonal hybridoma supernatant of an AlivaMab Mouse Kappa hybridoma (detected with anti-mouse Fc); Kappa light chain; also called Sib2.1) VH: EVQLVESGGGLVQPGGSLRLSCAASGFTFSSYWMSWVRQAPGKGLEWVANINEDGNEKYYVDSVKGRLTISRDNAKNSLYLQMNSLRAEDTAVYFCAREGGQWLSLDYWGQGALVTVSS VL: DIQMTQSPSSVSASVGDRVSITCRASQGISSWLAWYQQKPGKAPKILIYGASSLQSGVPSRFSGSGSGTDFTLTISSLQPEDFATYYCQQANSFPWTFGQGTKVEIK",33.7%,115000 gMFI
"75110_01H18A (antibody, V domains shown, Tested as clonal hybridoma supernatant (AlivaMab Mouse Kappa; anti-mouse Fc detection); also called Sib6.1) VH: QVQLQQWGAGLLKPSETLSLTCAVYGGSFSGYYWSWIRQSPGKGLEWIGEINQSGSTNYNPSLKSRVTISVDTSKNQFSLKLSSVTAADTAVYYCARVINWFDSWGQGTLVTVSS VL: DIQMTQSPSSVSASVGDRVTITCRASQGISSWLAWYQQKPGKAPKLLIYAASSFQSGVPSRFSGSGSGTDFTLTISSLQTEDFATYYCQQANSFPYTFGQGTRLEIK",48.8%,101000 gMFI
"75110_01J09A (antibody, V domains shown, Tested as clonal hybridoma supernatant (AlivaMab Mouse Kappa; anti-mouse Fc detection); also called Sib2.2) VH: EVQLVESGGGLVQPGGSLRLSCVASGFTFSSYWMSWVRQAPGKGLEWVANTKEDGSDKYYVDSVKGRFTICRDNAKNSLYLQMNSLRAEDTAVYYCAREGGQWLALDYWGQGTLVTVSS VL: DIQMTQSPSSVSASVGDRVTINCRASQGISSWLAWYQQKPGKAPNLLIFGASSLQSGVPSRFSGSGFGTDFSLTITTLQPEDFATYHCQQANSFPWTFGQGTKVEIK",34.8%,143000 gMFI
"75110_01C18A (antibody, V domains shown, Tested as clonal hybridoma supernatant (AlivaMab Mouse Kappa; anti-mouse Fc detection)) VH: EVQLVESGGGLIQPGGSLRLSCAASGFTVSSNYMNWVRQAPGKGLEWVSVIYAGDNTYSADSVKGRFTISRDNSNNTLCLQMNSLRAEDTAVYYCAREGGTTGAFDIWGQGTMVTVSS VL: DIQMTQSPSSVSASVGDRVTITCRASQGINSWLAWYQQKPGKAPKLLIYAASSLQSGVPSRFSGSGSGTDFTLTISSLQPEDFATYYCQQGNSFPYTFGQGTKLEIK",34.1%,205000 gMFI
"75110_01D24A (antibody, V domains shown, Tested as clonal hybridoma supernatant (AlivaMab Mouse Kappa; anti-mouse Fc detection)) VH: QVQLQQWGAGLLKPSETLSLTCAVYGGSFSGYYWSWIRQPPGKGLEWIGEINHSGSTNYNPSLKSRVTISVDTSENQFSLKLNSVTAADTAVYYCARLVNWFDPWGQGTLVTVSS VL: EIQMTQSPSSVSASVGDRVTITCRASQDISNWLAWYQQKPGKAPNLLIFAASSLQTGVPSRFSGSGSGTDFTLTISSLQPDDFATYYCQQANSFPYSFGQGTNLGIK",32.9%,134000 gMFI
